In paper PMC5601999:

Assays:
FGF2-Y81pCMF-GFP (human) [1] = test: z-scan fluorescence correlation spectroscopy (brightness analysis); as a2; GUVs containing membrane pores, protein surface concentration smaller than 0.4 nmol/m^2
FGF2-Y81pCMF-GFP (human) [2] = test: z-scan fluorescence correlation spectroscopy (brightness analysis); as a2; GUVs without membrane pores, protein surface concentration ≤0.4 nmol/m^2
FGF2-Y81pCMF-GFP (human) [3] = test: z-scan fluorescence correlation spectroscopy (brightness analysis); protein on single GUVs with a plasma membrane-like lipid composition containing PI(4,5)P2, pre-incubated at least 30 min; average oligomeric state = cluster brightness / monomer brightness; GUVs containing membrane pores, protein surface concentration larger than 0.4 nmol/m^2

Row | stoichiometry N (average oligomeric state) (FGF2-Y81pCMF-GFP (human) [1]) | stoichiometry N (average oligomeric state) (FGF2-Y81pCMF-GFP (human) [2]) | stoichiometry N (average oligomeric state) (FGF2-Y81pCMF-GFP (human) [3]) | stoichiometry N (FGF2-Y81pCMF-GFP (human) [3]) [subunits] | Substance
1 | 5.24 | 5.22 | 9.23 | – | FGF2-Y81pCMF-GFP
2 | – | – | – | 8 to 12 | FGF2-Y81pCMF-GFP (natural protein)
